The results in this text go back to publication doi:10.1101/2023.03.27.534325, “Distinct role of TGN-resident clathrin adaptors for Rab5 activation in the TGN-endosome trafficking pathway” (bioRxiv, 2023).

Substitutions are numbered along the chain they refer to.

Assay [1] concerns the target T1, GFP-tagged active Vps21p mutant (Q66L) (S. cerevisiae, UniProt P36017 1-210, Q66L).
T1 construct: Vps21p (yeast Rab5), Saccharomyces cerevisiae, constitutively active mutant; also called Vps21Q66L; constitutively active Q66L mutant of Vps21p
T1 sequence (looked up): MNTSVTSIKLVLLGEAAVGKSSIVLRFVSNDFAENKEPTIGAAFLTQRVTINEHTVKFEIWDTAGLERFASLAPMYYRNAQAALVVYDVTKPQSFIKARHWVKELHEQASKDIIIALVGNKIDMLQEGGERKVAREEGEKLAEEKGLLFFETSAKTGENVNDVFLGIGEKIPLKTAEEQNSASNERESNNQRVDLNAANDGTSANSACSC
Nature of the assay: pull-down; extract of yeast cells expressing GFP-tagged Vps21p mutant incubated with GST-GNB-bound Glutathione sepharose-4B; washed; incubated with Nluc-RbNT at 200 nM; bound fractions blotted with anti-6×His or anti-GFP antibody. As to conditions: both partners purified.

Another assay addresses T2, GFP-ALFA-Vps21p (S. cerevisiae, UniProt P36017 1-210).
T2 construct: Vps21p (yeast Rab5), Saccharomyces cerevisiae; The ALFA peptide lies between GFP and Vps21p, by the printed name; also called Rab5; yeast Rab5 (Vps21p); not shown: GFP, N-terminal, kept; ALFA peptide, N-terminal, kept
T2 sequence (looked up): T1 sequence (looked up) with L66Q
Nature of the assay: pull-down; GFP-ALFA-Vps21p from 600 μg cleared lysate of wild-type yeast held on GST-ANB Glutathione sepharose-4B; washed (20 mM Tris-HCl pH 8.0, 500 mM NaCl, 10 mM MgCl2, 0.1% NP-40); 10 pmole 6×His-RbNT-Nluc added, 1 hr in the cold room; eluted with ALFA peptide; Nluc activity read. Also run on ent3Δ ent5Δ, ent3Δ ent5Δ apl4Δ, pik1-1, pik1-1 ent3Δ, pik1-1 ypt31ts and pik1-1 ypt31ts gga1Δ gga2Δ cells. As to conditions: both partners purified.

B1: 6×His-Nano luciferase (Nluc)-Rabenosyn5 N-terminal fragment (domain or fragment, human, UniProt Q9H1K0 1-40, looked up)
chain: MASLDDPGEVREGFLCPLCLKDLQSFYQLHSHYEEEHSGE
notes: Rabenosyn-5, human, N-terminal fragment (1-40 a.a.), RbNT; The legends name it 6×His-Nluc-RbNT and the methods 6×His-RbNT-Nluc; The cloning sites (Nluc at XhoI/EcoRI, RbNT at EcoRI/HindIII of pColdI) fit His-Nluc-RbNT; also called Nluc-RbNT; 6×His-RbNT-Nluc; source: E. coli KRX, purified (Ni-NTA agarose); not shown: His6, N-terminal, kept; Nano luciferase, N-terminal, kept
B1: the binding result (in assay [1]; with GFP-ALFA-Vps21p) was “binds” in each case.
